Reference: patent US20250002543A1

Experiments:
[1] = biological target: immunoglobulin immobilized on IgG Sepharose 6 Fast Flow (manufactured by Cytiva); test: IgG Sepharose 6 Fast Flow column; linear gradient 0.1 M citrate pH 6.5 to pH 2.2; pH at the peak of the eluted binding protein
[2] = biological target: Herceptin containing human κ light chain subgroup 1 (Vκ1) (manufactured by Chugai Pharmaceutical Co., Ltd.); test: ELISA; Herceptin immobilised, binding protein at 2 ug/mL, dissociation with 0.05 M citric acid pH 2.7 for 2 min, absorbance ratio to wells without dissociation

Elution pH [1]: 2.9 pH
Elution rate [%] [2]: 76%
Substance: FpL_C3 (wild-type), immunoglobulin-binding domain C3 of protein L (FpL) of Finegoldia magna
